Assay [1] has as its target mGluR5 (endogenous, mouse) (mouse (endogenous in brain, spinal cord and cultured cortical neurons)) (UniProt Q3UVX5). Nature of the assay: co-IP.
Assay [2] deals with Homer (pan-Homer immunoprecipitation), DIV 14 cortical neurons (Figure 5c) (mouse (endogenous in cultured cortical neurons)). Put plainly: co-IP.

Consider two substances from publication PMC3434267.

On to ERK1/2, mouse forebrain (Figure 5b), for which the co-IP in Preso1^−/− brain, % of WT in assay [1] is 64.4 % of WT.
In the case of “mGluR5 (endogenous, mouse) (from UniProt Q3UVX5 19-1203) (receptor)”, in assay [2], the co-IP in BDNF-treated Preso1^−/− neurons, % of untreated WT was 69.8%; the co-IP in DHPG-treated Preso1^−/− neurons, % of untreated WT came out at 54%; the co-IP in WT neurons after BDNF 30 min, % of untreated amounted to 158%; the co-IP in WT neurons after DHPG 30 min, % of untreated (% of untreated) stood at 157. For the same substance, in assay [2], the co-IP in untreated Preso1^−/− neurons, % of untreated WT (BDNF series) worked out at 65.3% and the co-IP in untreated Preso1^−/− neurons, % of untreated WT (DHPG series) was found to be 47%.
